# According to IntAct's records for PubMed 16908849:
# B1: Tumor protein 63 (Homo sapiens), Q9H3D4 (parent)
# chain: MNFETSRCATLQYCPDPYIQRFVETPAHFSWKESYYRSTMSQSTQTNEFLSPEVFQHIWDFLEQPICSVQPIDLNFVDEPSEDGATNKIEISMDCIRMQDSDLSDPMWPQYTNLGLLNSMDQQIQNGSSSTSPYNTDHAQNSVTAPSPYAQPSSTFDALSPSPAIPSNTDYPGPHSFDVSFQQSSTAKSATWTYSTELKKLYCQIAKTCPIQIKVMTPPPQGAVIRAMPVYKKAEHVTEVVKRCPNHELSREFNEGQIAPPSHLIRVEGNSHAQYVEDPITGRQSVLVPYEPPQVGTEFTTVLYNFMCNSSCVGGMNRRPILIIVTLETRDGQVLGRRCFEARICACPGRDRKADEDSIRKQQVSDSTKNGDGTKRPFRQNTHGIQMTSIKKRRSPDDELLYLPVRGRETYEMLLKIKESLELMQYLPQHTIETYRQQQQQQHQHLLQKQTSIQSPSSYGNSSPPLNKMNSMNKLPSVSQLINPQQRNALTPTTIPDGMGANIPMMGTHMPMAGDMNGLSPTQALPPPLSMPSTSHCTPPPPYPTDCSIVSFLARLGCSSCLDYFTTQGLTTIYQIEHYSMDDLASLKIPEQFRHAIWKGILDHRQLHEFSSPSHLLRTPSSASTVSVGSSETRGERVIDAVRFTLRQTISFPPRDEWNDFNFDMDARRNKQQRIKEEGE
# Variants of: B1
# Conditions: with itch_human ITCH
row,Variant,effect of a mutation on the interaction
1,Y543F,disrupting interaction strength
